Our source for the binding result and Kd values is article PMC3527510, “Bin2 Is a Membrane Sculpting N-BAR Protein That Influences Leucocyte Podosomes, Motility and Phagocytosis” (PLoS ONE, 2012).

B1: GST-hBin2-CT (C-terminal region of human Bin2, amino acids 237-565) (domain or fragment, UniProt Q9UBW5 237-565, looked up)
chain: KLEKQHSNKVFVVKGLSSSSRRSLVISPPVRTATVSSPLTSPTSPSTLSLKSESESVSATEDLAPDAAQGEDNSEIKELLEEEEIEKEGSEASSSEEDEPLPACNGPAQAQPSPTTERAKSQEEVLPSSTTPSPGGALSPSGQPSSSATEVVLRTRTASEGSEQPKKRASIQRTSAPPSRPPPPRATASPRPSSGNIPSSPTASGGGSPTSPRASLGTGTASPRTSLEVSPNPEPPEKPVRTPEAKENENIHNQNPEELCTSPTLMTSQVASEPGEAKKMEDKEKDNKLISANSSEGQDQLQVSMVPENNNLTAPEPQEEVSTSENPQL
notes: Cloned into Nde1/Not1 sites of pGEX-4T-2; also called GST-Bin2-CT; BCT; source: E. coli DH5α, purified (glutathione sepharose, eluted with glutathione, dialysed)

Data set [1] has as its target T1, Full-length rat Endophilin A1 (rat, UniProt O35179 1-352).
T1 construct: Endophilin A1, rat, full length; Cloned into pGEX-6P-2; also called rEndoA1; EndoA1
Put plainly: pull-down; 10 µg GST fusion or GST on glutathione beads with rising amounts of purified prey, 60 min; 20 mM HEPES pH 7.5, 150 mM NaCl, 1 mM DTT, 0.1% Triton X-100; SDS-PAGE, Coomassie. As to conditions: both partners purified.

The target in data set [2] is T2, GST-hBin2-CT (C-terminal region of human Bin2, amino acids 237-565) (Homo sapiens (Human), UniProt Q9UBW5).
T2 chain: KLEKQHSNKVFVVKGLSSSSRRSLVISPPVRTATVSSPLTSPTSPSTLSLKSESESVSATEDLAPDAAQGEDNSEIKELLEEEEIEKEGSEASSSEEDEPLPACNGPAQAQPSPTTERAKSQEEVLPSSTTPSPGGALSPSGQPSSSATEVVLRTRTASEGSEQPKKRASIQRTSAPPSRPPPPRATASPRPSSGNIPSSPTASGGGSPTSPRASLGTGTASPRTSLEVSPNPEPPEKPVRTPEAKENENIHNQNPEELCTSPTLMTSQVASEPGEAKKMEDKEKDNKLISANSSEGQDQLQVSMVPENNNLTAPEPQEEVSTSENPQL
In words: GST pull-down, Coomassie.

Data set [3] has as its target B1. Put plainly: pull-down; 10 µg GST fusion or GST on glutathione beads with rising amounts of purified prey, 60 min; 20 mM HEPES pH 7.5, 150 mM NaCl, 1 mM DTT, 0.1% Triton X-100; SDS-PAGE, Coomassie. The settings on record: both partners purified.
Data set [4] deals with the molecule itself. In words: crystal structure; hanging-drop crystals in 10% MPD, 7% PEG4000, 0.1 M sodium citrate pH 5.3, 20°C; MIRAS phasing; two molecules in the asymmetric unit.
Data set [5] concerns the molecule itself. In words: AUC; equilibrium sedimentation, 20°C, 20,000, 30,000 and 40,000 rpm; 20 mM Tris, 200 mM NaCl, 0.1 mM DTT; dimer to monomers.
Data set [6] deals with the molecule itself. Put plainly: SEC; gel filtration profiles of WT rBin2 N-BAR against the V81R,S214E mutant, with molecular weight standards. (In general: In gel filtration, larger molecules generally elute earlier.)

T1 sequence (O35179 whole entry): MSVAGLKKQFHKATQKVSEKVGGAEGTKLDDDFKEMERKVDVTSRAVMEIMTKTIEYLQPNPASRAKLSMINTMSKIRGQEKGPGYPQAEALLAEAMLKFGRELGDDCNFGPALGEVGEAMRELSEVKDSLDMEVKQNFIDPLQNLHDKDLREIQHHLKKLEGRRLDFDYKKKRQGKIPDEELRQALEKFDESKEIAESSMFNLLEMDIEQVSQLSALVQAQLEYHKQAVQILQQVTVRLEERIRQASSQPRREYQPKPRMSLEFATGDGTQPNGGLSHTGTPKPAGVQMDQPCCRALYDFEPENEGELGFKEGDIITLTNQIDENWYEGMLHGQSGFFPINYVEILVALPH

Consider B1, for which the binding result in data set [1] was “binds”.

B2: Human α-PIX SH3 domain (amino acids 160-222) (domain or fragment, UniProt Q15052 160-222, looked up)
chain: SHQLIVKARFNFKQTNEDELSVCKGDIIYVTRVEEGGWWEGTLNGRTGWFPSNYVREIKSSER
notes: α-PIX, human, SH3 domain, residues 160-222; Cloned into pGEX-4T-2
Consider B2, for which the binding result in data set [2] and in data set [3] was “binds” each time.

B3: Human Bin2 BAR domain (residues 20-238; Bin2 N-BAR Δ19) (domain or fragment, UniProt Q9UBW5 20-238, looked up)
chain: KFSRAQEKVLQKLGKAVETKDERFEQSASNFYQQQAEGHKLYKDLKNFLSAVKVMHESSKRVSETLQEIYSSEWDGHEELKAIVWNNDLLWEDYEEKLADQAVRTMEIYVAQFSEIKERIAKRGRKLVDYDSARHHLEAVQNAKKKDEAKTAKAEEEFNKAQTVFEDLNQELLEELPILYNSRIGCYVTIFQNISNLRDVFYREMSKLNHNLYEVMSKL
notes: Bridging integrator-2 (Bin2, BRAP1), human, residues 20-238; human Bin2 has 565 amino acids; the final model holds residues 37-238; Cloned into BamH1/Xho1 sites of pGEX-4T-2; also called hBin2 BAR; Bin2-NTΔ19; source: E. coli DH5α, purified (glutathione sepharose, thrombin cleavage, HiTrap Q, gel filtration)
On to B3, for which the binding result in data set [4] is listed as “binds”.

B4: Human Bin2 N-BAR domain (1-238) (domain or fragment, UniProt Q9UBW5 1-238, looked up)
chain: MAEGKAGGAAGLFAKQVQKKFSRAQEKVLQKLGKAVETKDERFEQSASNFYQQQAEGHKLYKDLKNFLSAVKVMHESSKRVSETLQEIYSSEWDGHEELKAIVWNNDLLWEDYEEKLADQAVRTMEIYVAQFSEIKERIAKRGRKLVDYDSARHHLEAVQNAKKKDEAKTAKAEEEFNKAQTVFEDLNQELLEELPILYNSRIGCYVTIFQNISNLRDVFYREMSKLNHNLYEVMSKL
notes: Bridging integrator-2 (Bin2, BRAP1), human, residues 1-238; also called hBin2 N-BAR; source: E. coli DH5α, purified (glutathione sepharose, thrombin cleavage, HiTrap Q, gel filtration)
As for B4, the Kd (as a rule, the constant that tells how readily two partners part at equilibrium) in data set [5] amounted to 7 µM.

B5: Rat Bin2 N-BAR domain (1-238), wild type (domain or fragment, UniProt Q68FR2 1-238, looked up)
chain: MAEGKAGGAAGLFAKQMQKKFSRAQEKVLQKLGKTVETKDERFEQSASNFYQQQAEGHRLYKDLKNFLSAVKVMRESSKRVSETLQEIYNSDWDGHEDLKAIVGNNDLLWEDYEEKLADQALRTMENYVSQFSEVKERIAKRGRKLVDYDSARHHLEAVQNAKKKDEAKMAKAEEDFSKAQVVFEDLNQELLEELPVLYNSRIGCYVTVFQNISNLRDVFYREMSKLNHSLYEVMSKL
notes: Bridging integrator-2 (Bin2), rat, residues 1-238; also called WT rBin2 N-BAR
For the molecule B5, the binding result in data set [6] is “binds”.

B6: Rat Bin2 N-BAR V81R,S214E mutant (domain or fragment, UniProt Q68FR2 1-238, looked up)
chain: MAEGKAGGAAGLFAKQMQKKFSRAQEKVLQKLGKTVETKDERFEQSASNFYQQQAEGHRLYKDLKNFLSAVKVMRESSKRRSETLQEIYNSDWDGHEDLKAIVGNNDLLWEDYEEKLADQALRTMENYVSQFSEVKERIAKRGRKLVDYDSARHHLEAVQNAKKKDEAKMAKAEEDFSKAQVVFEDLNQELLEELPVLYNSRIGCYVTVFQNIENLRDVFYREMSKLNHSLYEVMSKL
notes: also called rBin2 N-BAR V81R,S214E; dimerization mutant
For the molecule B6, in data set [6], the binding result is reported as “binds”.
